Test results published in paper PMC8136826.

Molecular target: Cas12a ΔBH (Francisella novicida, UniProt A0Q7Q2 1-1300, del953-969)
Experiment: EMSA

B1: crRNA + dsDNA target (58 nt, TS/NTS) (mixed)
RNA: UAAUUUCUACUGUUGUAGAUGUGAUAAGUGGAAUGCCAUGUGGG
DNA 1: ACTCAATTTTGACAGCCCACATGGCATTCCACTTATCACTAAAGGCATCCTTCCACGT
DNA 2: ACGTGGAAGGATGCCTTTAGTGATAAGTGGAATGCCATGTGGGCTGTCAAAATTGAGT
**Q.** Does B1 bind?
**A.** binds
